This passage reports screen value results from paper PMC12102759.

B1: SH3BP2 peptide 410-425 (SH3 domain-binding protein 2), 16-mer library wild type / TNKS ANK (TNKS 12 ANK repeats, residues 174-649) (parent)
chain 1: LPHLQRSPPDGQSFRS
chain 2: TGVPAVSGALRELLEACRNGDVSRVKRLVDAANVNAKDMAGRKSSPLHFAAGFGRKDVVEHLLQMGANVHARDDGGLIPLHNACSFGHAEVVSLLLCQGADPNARDNWNYTPLHEAAIKGKIDVCIVLLQHGADPNIRNTDGKSALDLADPSAKAVLTGEYKKDELLEAARSGNEEKLMALLTPLNVNCHASDGRKSTPLHLAAGYNRVRIVQLLLQHGADVHAKDKGGLVPLHNACSYGHYEVTELLLKHGACVNAMDLWQFTPLHEAASKNRVEVCSLLLSHGADPTLVNCHGKSAVDMAPTPELRERLTYEFKGHSLLQAAREADLAKVKKTLALEIINFKQPQSHETALHCAVASLHPKRKQVTELLLRKGANVNEKNKDFMTPLHVAAERAHNDVMEVLHKHGAKMNALDTLGQTALHRAALAGHLQTCRLLLSYGSDPSIISLQGFTAAQMGNEAVQQILSESTPIRTSD
B2: TPTE2 peptide 94-109 (Phosphatidylinositol 3,4,5-trisphosphate 3-phosphatase TPTE2), 16-mer library wild type / TLN1 PTB (TLN1 Phosphotyrosine-binding (PTB) domain, residues 309-401) (parent)
chain 1: DLIFTDSKLYIPLEYR
chain 2: GVSFFLVKEKMKGKNKLVPRLLGITKECVMRVDEKTKEVIQEWNLTNIKRWAASPKSFTLDFGDYQDGYYSVQTTEGEQIAQLIAGYIDIILK

The variants in the first assay derive from B1. Nature of the assay: proteomic peptide phage display deep mutational scan (ProP-PD DMS): M13 P8 16-mer library selected against immobilised GST-tagged bait for four days (rounds), NGS of the eluted pools per day and pseudo-replica. Conditions: with TNKS ANK (TNKS 12 ANK repeats, residues 174-649); bait immobilised on MaxiSorp plates (10 µg), library pre-cleared on GST, 2 h binding at 4 °C, five washes; one round per day, days 1-4; value from days 2 and 3; keep out of graded; scale: average fractional NGS count over selection days 2 and 3.
Take chain 1 S13R: the screen value amounted to 3.04e-05.

Take chain 1 S13K: the screen value is 0.

For the variant chain 1 S13W, the screen value is 0.000125.

Take chain 1 S7R: the screen value was determined as 8.27e-05.

With chain 1 S7W, the screen value is 1.87e-05.

In the case of chain 1 S7A, the screen value was 8.68e-05.

As to chain 1 S7G, the screen value came to 0.

In the case of chain 1 R15Y, the screen value amounted to 0.000124.

On to chain 1 P2K, for which the screen value stood at 3.03e-05.

Consider chain 1 P2W, for which the screen value came out at 0.

For chain 1 P2Y, the screen value is 4.27e-05.

As to chain 1 P8F, the screen value came out at 0.000116.

chain 1 P8G: the screen value came out at 8.51e-05.

Consider chain 1 P8W, for which the screen value was determined as 7.62e-05.

Take chain 1 P9M: the screen value is 0.000123.

Consider chain 1 P9I, for which the screen value was determined as 4.06e-05.

Consider chain 1 P9V, for which the screen value came to 0.

Take chain 1 P9L: the screen value was found to be 0.

Turning to chain 1 G11L, the screen value came to 0.

With chain 1 G11R, the screen value turned out to be 2.25e-05.

As for chain 1 G11E, the screen value came out at 0.

On to chain 1 G11A, for which the screen value stood at 0.

For chain 1 G11D, the screen value amounted to 0.000101.

Take chain 1 Q12R: the screen value came to 6.14e-05.

For chain 1 Q12D, the screen value stood at 6.89e-05.

In the case of chain 1 H3R, the screen value was 3.96e-05.

Take chain 1 H3D: the screen value was 4.19e-05.

Turning to chain 1 H3S, the screen value was 9.56e-05.

For the variant chain 1 H3K, the screen value is 5.51e-05.

On to chain 1 D10S, for which the screen value was 7.49e-05.

Consider chain 1 D10F, for which the screen value stood at 0.

In the case of chain 1 D10H, the screen value was found to be 0.

chain 1 D10R: the screen value turned out to be 4.95e-05.

Consider chain 1 D10W, for which the screen value came out at 7.2e-05.

On to chain 1 D10N, for which the screen value is 0.

As to chain 1 D10M, the screen value stood at 3.11e-05.

For the variant chain 1 R6Q, the screen value turned out to be 0.

Regarding chain 1 R6A, the screen value turned out to be 0.

As for chain 1 R6E, the screen value stood at 0.

chain 1 R6T: the screen value came to 0.

As for chain 1 R6V, the screen value was determined as 4.06e-05.

In the case of chain 1 R6K, the screen value stood at 0.

For the variant chain 1 F14R, the screen value amounted to 2.25e-05.

With chain 1 L4K, the screen value is 3.15e-05.

As for chain 1 L4R, the screen value is 2.25e-05.

For chain 1 Q5I, the screen value was determined as 7.42e-05.

Consider chain 1 Q5R, for which the screen value is 6.18e-05.

The variants in the next assay derive from B2. The description is as above. Conditions: with TLN1 PTB (TLN1 Phosphotyrosine-binding (PTB) domain, residues 309-401); bait immobilised on MaxiSorp plates (10 µg), library pre-cleared on GST, 2 h binding at 4 °C, five washes; one round per day, days 1-4; value from days 2 and 3; keep out of graded; scale: average fractional NGS count over selection days 2 and 3.
As to chain 1 K8I, the screen value was 0.

Consider chain 1 K8N, for which the screen value was 0.000705.

For chain 1 K8P, the screen value is 0.0034.

As to chain 1 K8H, the screen value amounted to 0.00014.

For chain 1 K8Y, the screen value is 9.03e-05.

Turning to chain 1 K8V, the screen value worked out at 0.

Turning to chain 1 K8T, the screen value stood at 9.24e-05.

For the variant chain 1 K8G, the screen value is 0.000416.

Take chain 1 K8R: the screen value came to 0.00105.

In the case of chain 1 K8L, the screen value stood at 0.000141.

For chain 1 K8Q, the screen value was determined as 0.00121.

chain 1 K8A: the screen value came out at 0.0039.

With chain 1 L9T, the screen value was determined as 2.4e-05.

For the variant chain 1 L9V, the screen value came out at 0.000711.

As to chain 1 L9N, the screen value was 0.

Turning to chain 1 L9R, the screen value amounted to 0.

Regarding chain 1 L9G, the screen value amounted to 0.000626.

chain 1 L9D: the screen value came to 0.

As to chain 1 P12E, the screen value worked out at 0.

chain 1 P12A: the screen value came to 0.

As to chain 1 P12W, the screen value turned out to be 0.

Take chain 1 I3M: the screen value was found to be 0.000353.

As to chain 1 I3N, the screen value came to 0.00121.

With chain 1 I3Q, the screen value was determined as 0.00339.

As to chain 1 I3F, the screen value is 0.0002.

With chain 1 I3S, the screen value is 0.000211.

Regarding chain 1 I3L, the screen value came out at 0.00133.

Take chain 1 I3K: the screen value was 0.00351.

chain 1 I3T: the screen value was 0.00253.

Consider chain 1 I3E, for which the screen value is 0.00388.

As for chain 1 I3R, the screen value is 0.00161.

As to chain 1 I3Y, the screen value is 0.000244.

With chain 1 I3V, the screen value is 0.00384.

As for chain 1 I3D, the screen value came to 0.0027.

Take chain 1 I3W: the screen value worked out at 0.000147.

Take chain 1 T5L: the screen value is 0.

Turning to chain 1 T5F, the screen value came to 0.000105.

As for chain 1 T5R, the screen value is 0.

For chain 1 T5V, the screen value turned out to be 0.00155.

Take chain 1 T5K: the screen value came to 0.

In the case of chain 1 T5I, the screen value turned out to be 0.000118.

In the case of chain 1 T5S, the screen value was 4.81e-05.

Regarding chain 1 T5Y, the screen value worked out at 8.75e-05.

chain 1 L13P: the screen value worked out at 0.000483.

As to chain 1 L13S, the screen value was found to be 0.0004.

chain 1 L13N: the screen value was 6.62e-05.

In the case of chain 1 L13A, the screen value came out at 0.0028.

For chain 1 L13D, the screen value is 3.05e-05.

Consider chain 1 L13G, for which the screen value is 0.000105.

As for chain 1 L13V, the screen value came to 4.1e-05.

Consider chain 1 L13T, for which the screen value came out at 0.000339.

As to chain 1 L13Y, the screen value is 0.

With chain 1 L13I, the screen value amounted to 0.00223.

For chain 1 L13R, the screen value stood at 0.000367.

Turning to chain 1 L2A, the screen value was found to be 0.000378.

With chain 1 L2E, the screen value amounted to 0.000516.

With chain 1 L2N, the screen value is 2.74e-05.

As to chain 1 L2P, the screen value worked out at 0.000184.

chain 1 L2D: the screen value came to 9.22e-05.

For chain 1 L2M, the screen value is 0.00204.

chain 1 L2H: the screen value was determined as 0.000178.

Turning to chain 1 L2T, the screen value came to 0.000185.

Turning to chain 1 L2Y, the screen value was found to be 0.000116.

As to chain 1 L2V, the screen value was determined as 0.00592.

With chain 1 L2G, the screen value worked out at 0.000486.

For the variant chain 1 L2S, the screen value was 3.05e-05.

Regarding chain 1 I11T, the screen value was 0.000474.

Take chain 1 I11K: the screen value was determined as 3.45e-05.

In the case of chain 1 I11N, the screen value amounted to 7.83e-05.

In the case of chain 1 I11E, the screen value turned out to be 0.000129.

Take chain 1 I11Y: the screen value stood at 5.14e-05.

As for chain 1 I11R, the screen value came out at 0.000323.

As for chain 1 I11Q, the screen value is 7.15e-05.

In the case of chain 1 I11H, the screen value was 0.000432.

In the case of chain 1 I11L, the screen value was 0.00308.

Consider chain 1 I11S, for which the screen value came to 7.21e-05.

For chain 1 I11F, the screen value is 6.22e-05.

Consider chain 1 S7A, for which the screen value amounted to 0.

Turning to chain 1 S7T, the screen value was determined as 6.44e-05.

Turning to chain 1 S7D, the screen value amounted to 0.

Regarding chain 1 S7N, the screen value was 0.000778.

Take chain 1 E14S: the screen value was 6.5e-05.

Turning to chain 1 E14G, the screen value was 0.00107.

As for chain 1 E14A, the screen value is 0.00053.

For the variant chain 1 E14V, the screen value stood at 3.45e-05.

For the variant chain 1 E14D, the screen value turned out to be 0.00114.

As to chain 1 E14F, the screen value is 9.64e-05.

For the variant chain 1 E14K, the screen value worked out at 0.000193.

chain 1 E14W: the screen value was 2.8e-05.

Take chain 1 E14Q: the screen value worked out at 0.000195.

Consider chain 1 F4T, for which the screen value was found to be 0.

chain 1 Y10R: the screen value amounted to 0.

With chain 1 Y10F, the screen value came to 6.96e-05.

Turning to chain 1 Y15R, the screen value turned out to be 4.1e-05.

Regarding chain 1 Y15G, the screen value was determined as 0.000939.

In the case of chain 1 Y15A, the screen value worked out at 0.00819.

Take chain 1 Y15L: the screen value is 0.00052.

With chain 1 Y15D, the screen value amounted to 0.00294.

Take chain 1 Y15Q: the screen value was found to be 0.00142.

Consider chain 1 Y15W, for which the screen value was found to be 0.00208.

For the variant chain 1 Y15V, the screen value came out at 0.000703.

As to chain 1 Y15H, the screen value worked out at 0.000355.

For the variant chain 1 Y15P, the screen value was determined as 0.00117.

As to chain 1 Y15E, the screen value was 0.00244.

Regarding chain 1 Y15T, the screen value turned out to be 0.0011.

With chain 1 D1N, the screen value is 7.86e-05.

In the case of chain 1 D1I, the screen value was found to be 0.

Take chain 1 D1S: the screen value turned out to be 0.000249.

Take chain 1 D1W: the screen value turned out to be 4.41e-05.

As to chain 1 D1K, the screen value is 0.

In the case of chain 1 D1H, the screen value amounted to 0.

Turning to chain 1 D1A, the screen value stood at 9.19e-05.

In the case of chain 1 D1T, the screen value came out at 0.000148.

With chain 1 D1E, the screen value was 0.000184.

With chain 1 D1G, the screen value stood at 0.00013.

For the variant chain 1 D6E, the screen value is 0.000625.

In the case of chain 1 D6W, the screen value was found to be 3.79e-05.

Consider chain 1 D6T, for which the screen value came to 0.000144.

For the variant chain 1 D6M, the screen value was determined as 0.

Consider chain 1 D6S, for which the screen value was determined as 0.000216.
